Source: US12134788B2, “Engineered prephenate dehydrogenases and arogenate dehydrogenases and methods of using the same” (Wisconsin Alumni Research Foundation, priority 2017, dated 2024)

Experiments:
[1] = substrate: N[C@@H](CC1(C(=O)O)C=CC(O)C=C1)C(=O)O; assay: ADH and PDH assay: steady-state kinetics and Tyr inhibition, MtPDH wild type; format: biochemical, Medicago truncatula; conditions: other: 0.5 mM NADP^+, pH 7.6, 37° C.
Protocol: (§1) Kinetic parameters of purified recombinant proteins were determined from assays conducted at varying arogenate (19.5 μM-5 mM) and prephenate concentration (23.4 μM-6 mM). Standard assay conditions were 25 mM HEPES pH 7.6, 50 mM KCl and 10% (v/v) ethylene glycol, and 0.5 mM NADP^+ with varied substrate, concentrations. Reactions were initiated by addition of enzyme and incubated at 37° C. monitored every 10-15 seconds at […] using a microplate reader (Tecan Genios). Kinetic parameters were determined by fitting initial velocity data to the Michaelis-Menten equation using the Origin software (OriginLab).
(§2) Arogenate was prepared by enzymatic conversion of prephenate (Sigma-Aldrich) as previously reported^56. For Tyr inhibition assays, Tyr was dissolved in a slightly basic solution (0.025 N NaOH) due to solubility issues, thus the concentration of lysis buffer was increased to 500 mM HEPES final concentration to buffer against the changes by addition of Tyr in the reaction. […]

[2] = substrate: O=C(O)C(=O)CC1(C(=O)O)C=CC(O)C=C1; assay: as above; format: biochemical, Medicago truncatula; conditions: other: 0.5 mM NADP^+, pH 7.6, 37° C.
Protocol: as §1, §2

[3] = substrate: N[C@@H](CC1(C(=O)O)C=CC(O)C=C1)C(=O)O; assay: ADH and PDH assay: steady-state kinetics and Tyr inhibition, GmncADH wild type; format: biochemical, Glycine max (soybean); conditions: other: 0.5 mM NADP^+, pH 7.6, 37° C.
Protocol: as §1
(§3) Arogenate was prepared by enzymatic conversion of prephenate (Sigma-Aldrich) as previously reported^56. For Tyr inhibition assays, Tyr was dissolved in a slightly basic solution (0.025 N NaOH) due to solubility issues, thus the concentration of lysis buffer was increased to 500 mM HEPES final concentration to buffer against the changes by addition of Tyr in the reaction. Reactions containing varying amounts of Tyr (10 μM-8 mM) with 0.5 mM NADP^+ and either 1 mM arogenate or 0.8 mM prephenate were monitored as above.

[4] = substrate: N[C@@H](CC1(C(=O)O)C=CC(O)C=C1)C(=O)O; assay: ADH and PDH assay: steady-state kinetics and Tyr inhibition, MtncADH wild type; format: biochemical, Medicago truncatula; conditions: other: 0.5 mM NADP^+, pH 7.6, 37° C.
Protocol: as §1, §3

[5] = substrate: O=C(O)C(=O)CC1(C(=O)O)C=CC(O)C=C1; assay: as above; format: biochemical, Medicago truncatula; conditions: other: 0.5 mM NADP^+, pH 7.6, 37° C.
Protocol: as §1, §3

[6] = substrate: N[C@@H](CC1(C(=O)O)C=CC(O)C=C1)C(=O)O; assay: ADH and PDH assay: steady-state kinetics and Tyr inhibition, SolyncADH wild type; format: biochemical, Solanum lycopersicum (tomato); conditions: other: 0.5 mM NADP^+, pH 7.6, 37° C.
Protocol: as §1, §3

[7] = substrate: N[C@@H](CC1(C(=O)O)C=CC(O)C=C1)C(=O)O; assay: ADH and PDH assay: steady-state kinetics and Tyr inhibition, GmPDH1 wild type; format: biochemical, Glycine max (soybean); conditions: other: 0.5 mM NADP^+, pH 7.6, 37° C.
Protocol: as §1, §2

[8] = substrate: O=C(O)C(=O)CC1(C(=O)O)C=CC(O)C=C1; assay: as above; format: biochemical, Glycine max (soybean); conditions: other: 0.5 mM NADP^+, pH 7.6, 37° C.
Protocol: as §1, §2

[9] = PDH assay: steady-state kinetics of purified recombinant plant enzymes with prephenate; format: biochemical; conditions: prephenate versus arogenate, NADP+ cofactor
Text: As used herein, a polypeptide may “have greater arogenate dehydrogenase activity than prephenate dehydrogenase activity” or “have greater prephenate dehydrogenase activity than arogenate dehydrogenase activity” when the steady-state kinetic parameters (kcat/Km (mM^−1s^−1)) for arogenate dehydrogenase activity are greater than the steady-state parameters (kcat/Km (mM^−1s^−1)) for prephenate dehydrogenase activity or when the steady-state kinetic parameters (kcat/Km (mM^−1s^−1)) for prephenate dehydrogenase activity are greater than the steady-state parameters (kcat/Km (mM^−1s^−1)) for arogenate dehydrogenase activity. Steady-state kinetic parameters may be measured using techniques similar to those described by the inventors in the Examples. Briefly, kinetic parameters of purified polypeptides can be determined from assays conducted at varying arogenate and prephenate concentrations. Standard assay conditions include 25 mM HEPES pH 7.6, 50 mM KCl and 10% (v/v) ethylene glycol, and 0.5 mM NADP^+ with varied substrate, concentrations. Reactions can be initiated by the addition of the polypeptide and incubated at 37° C. monitored every 10-15 seconds at A340nm using a microplate reader. Kinetic parameters may be determined by fitting initial velocity data to the Michaelis-Menten equation using the Origin software.
as §1

[10] = PDH assay of microbial TyrA enzymes (Example 2); format: biochemical
Protocol: ADH and PDH assays were performed using purified recombinant enzymes for SsTyrA and MhTyrA Wt and Q227E mutant, while the E. coli cell lysate was used for OiTyrA as expression and purification of this enzyme was unsuccessful. Reactions contained 0.8 mM substrate (arogenate or prephenate) and 0.8 mM cofactor (NADP+ or NAD+) together with reaction buffer (25 mM HEPES pH 7.6, 50 mM KCl, 10% (v/v) ethylene glycol). For OiTyrA assays containing cell lysates, reactions were incubated for 45 minutes and analyzed using HPLC as previously reported (Schenck et al., 2015). For pure enzymes, reactions were monitored every 10-15 seconds for reduced cofactor at A340 nm using a microplate reader (Tecan Genios). Kinetic parameters of purified recombinant enzymes were determined from assays containing varying concentrations of arogenate (39.1 μM-5 mM) or prephenate (39.1 μM-5 mM) substrate and monitored 10-15 seconds for reduced cofactor at A340 nm using a microplate reader (Tecan Genios). Kinetic parameters were determined by fitting initial velocity data to the Michaelis-Menten equation using Origin software (OriginLab) from technical replicate assays (n=3). Arogenate substrate was prepared by enzymatic conversion of prephenate (Sigma-Aldrich). All enzyme assays were conducted at a reaction time and protein concentration that were in the linear range and proportional to reaction velocity.

B1: MtPDH (MtPDH1; Mt3g071980), Medicago truncatula prephenate dehydrogenase, wild type (Medicago truncatula) (protein)
chain: MSSSSKSLKIGIVGFGTFGQFLANTMIKQGHTLTATSRTDYSQLCDQMGIHFFRDITAFLDADMDVILLCTSISSLSEVVGSMPLACLKRPTLFVDVLSVKEHPKNLLLKVLPEESDILCTHPMFGPVSGKNGWQNLTFMFDKVRIKDEVTCSKFLQIFASEGCKMVEMSCEEHDKAAAKSQFITHTIGRTLAEMDIKSTPIDTKGFQTLVELKKPVMGCSFDLYSGLFVYNRFARQELENLEHALHKVKEMLVQRIDEGQNPERTES
Km [1]: 940 ± 40 µM
kcat [1]: 16.9 ± 1.1 s⁻¹
kcat/Km [1]: 18000 M⁻¹ s⁻¹
Km [2]: 50 ± 10 µM
kcat [2]: 18.5 ± 3 s⁻¹
kcat/Km [2]: 370000 M⁻¹ s⁻¹

B2: GmncADH (Gm14g05990), soybean (Glycine max) noncanonical arogenate dehydrogenase, wild type (Glycine max) (protein)
chain: MSTWSLKIGVVGFGSFGQFLAKTMIKQGHTLRATSRTDYSLLCLPMGIQFFRDVAAFLEADNDVILVCTSILSLSEVLSSMPLTCLKRSTLFVDVLSVKEHPRNLLIKVLPEESDILCTHPMFGPDSGKDGWQDLTFVYDKVRIRDEAICSSFLHIFASEGCRMLQMSCEEHDKIAAKSQFITHTIGRTLAEMDIKSTPIDTKGFHSLVQLKDTTIRDSFDLYSGLFLHNRFAVQELENLEHALHKVKEMLVQRKSEELGLEKTEC
notes: wild type
Km [3]: 410 ± 30 µM
kcat [3]: 27.7 ± 1.1 s⁻¹
kcat/Km [3]: 67600 M⁻¹ s⁻¹

B3: MtncADH (Mt5g083530), Medicago truncatula noncanonical arogenate dehydrogenase, wild type (Medicago truncatula) (protein)
chain: MSNSPSLKIGIVGFGSFGQFLAKTMIKQGHTLTATSRTDYSHTCLQLGIQFFRDVGTFIEANNDVILICTSIMSFTKVLSSMPLACLKKPTTLFVDVLSVKEHPREVLLRVLPEESDILCTHPMFGPESGKNGWKDLNFMYDKVRIHDEATCSNFLHIFASEGCKMLQMSCEEHDKIAAKSQFITHTIGRTLAEMDIESTPIDTKGFQTLTQLKNTTMRDSFDLYSGLFVHNRFAKQELENLQRALDRVKEMLVQRMREELGPEKD
notes: wild type
Km [4]: 140 ± 20 µM
kcat [4]: 39 ± 7.6 s⁻¹
kcat/Km [4]: 279000 M⁻¹ s⁻¹
Km [5]: 6690 ± 270 µM
kcat [5]: 0.3 ± 0.1 s⁻¹
kcat/Km [5]: 45 M⁻¹ s⁻¹

B4: SolyncADH (Slycopersicum06g050630), tomato noncanonical arogenate dehydrogenase, wild type (Solanum lycopersicum) (protein)
chain: MSSSSSCQPKTLRIGIIGFGPFAQFLAKTMMKQGHCIHVTSRSDYSELCTDLGILFFRDMGAFLESDNEVIMISTSILSLSQVVESIPFNCLKRPTLFVDVLSVKEHPKDVLLRMMPRECDLLCTHPMFGPESGKDGWEDLTFMYDMVRIRDQPLCSSFLHIFSSEGCKMLEMTCEKHDRLAAQSQFLTHTIGRILSEMEVEPTPIDTKGFQKLVQVKESSVKDSFDLFSGLFIHNRFARQQMKNLEVALEKTKEKLQERSKELQDPIISKF
notes: wild type
Km [6]: 450 ± 50 µM
kcat [6]: 15.9 ± 2.1 s⁻¹
kcat/Km [6]: 35300 M⁻¹ s⁻¹

B5: GmPDH1 (Gm18g02650), soybean (Glycine max) prephenate dehydrogenase, wild type (Glycine max) (protein)
chain: MSTSSSSQSLKIGIVGFGNFGQFLAKTMIKQGHTLTATSRSDYSELCLQMGIHFFRDVSAFLTADIDVIVLCTSILSLSEVVGSMPLTSLKRPTLFVDVLSVKEHPRELLLRELPEDSDILCTHPMFGPQTAKNGWTDHTFMYDKVRIRDEVICSNFIQIFATEGCKMVQMSCEEHDRAAAKSQFITHTIGRTLGEMDIQSTPIDTKGFETLVKLKETMMRNSFDLYSGLFVYNRFARQELENLEHALHKVKETLMIQRTNGEQGHKRTES
notes: homodimer
Km [7]: 2590 ± 90 µM
kcat [7]: 6.3 ± 0.7 s⁻¹
kcat/Km [7]: 2430 M⁻¹ s⁻¹
Km [8]: 90 ± 10 µM
kcat [8]: 30.4 ± 0.7 s⁻¹
kcat/Km [8]: 338000 M⁻¹ s⁻¹

B6: SolyncADH: noncanonical arogenate dehydrogenase from tomato, wild-type (protein, listed as Solanum lycopersicum)
chain: MSSSSSCQPKTLRIGIIGFGPFAQFLAKTMMKQGHCIHVTSRSDYSELCTDLGILFFRDMGAFLESDNEVIMISTSILSLSQVVESIPFNCLKRPTLFVDVLSVKEHPKDVLLRMMPRECDLLCTHPMFGPESGKDGWEDLTFMYDMVRIRDQPLCSSFLHIFSSEGCKMLEMTCEKHDRLAAQSQFLTHTIGRILSEMEVEPTPIDTKGFQKLVQVKESSVKDSFDLFSGLFIHNRFARQQMKNLEVALEKTKEKLQERSKELQDPIISKF
modifications: misc_feature (1)..(272): SolyncADH WT
notes: noncanonical arogenate dehydrogenase from tomato, wild-type
substrate specificity: PDH versus ADH activity (in words) [9]: exhibited ADH but not PDH activity

B7: GmPDH1 N222D: site-directed mutant of soybean PDH, Asn222 to Asp (protein)
chain: MSTSSSSQSLKIGIVGFGNFGQFLAKTMIKQGHTLTATSRSDYSELCLQMGIHFFRDVSAFLTADIDVIVLCTSILSLSEVVGSMPLTSLKRPTLFVDVLSVKEHPRELLLRELPEDSDILCTHPMFGPQTAKNGWTDHTFMYDKVRIRDEVICSNFIQIFATEGCKMVQMSCEEHDRAAAKSQFITHTIGRTLGEMDIQSTPIDTKGFETLVKLKETMMRDSFDLYSGLFVYNRFARQELENLEHALHKVKETLMIQRTNGEQGHKRTES
modifications: Synthetic: GmPDH1 N222D
notes: site-directed mutant of soybean PDH, Asn222 to Asp
substrate specificity: PDH versus ADH activity (in words) [9]: gained ADH activity

B8: MtPDH C220D: site-directed mutant of M. truncatula PDH, Cys220 to Asp (protein)
chain: MSSSSKSLKIGIVGFGTFGQFLANTMIKQGHTLTATSRTDYSQLCDQMGIHFFRDITAFLDADMDVILLCTSISSLSEVVGSMPLACLKRPTLFVDVLSVKEHPKNLLLKVLPEESDILCTHPMFGPVSGKNGWQNLTFMFDKVRIKDEVTCSKFLQIFASEGCKMVEMSCEEHDKAAAKSQFITHTIGRTLAEMDIKSTPIDTKGFQTLVELKKPVMGDSFDLYSGLFVYNRFARQELENLEHALHKVKEMLVQRIDEGQNPERTES
modifications: Synthetic: MtPDH C220D
notes: site-directed mutant of M. truncatula PDH, Cys220 to Asp
substrate specificity: PDH versus ADH activity (in words) [9]: reduced PDH activity and enhanced ADH activity

B9: Wild-type: wild-type archaeon TyrA from Methanosaeta harundinacea, recombinant (protein)
chain: MTTMANSGTKNRMLIVGGTGGTGSWFAKYFKEHGFLVSIWGPSGKVEVAERLGVKFARDLMAEVAKSDVVLLSVPIKETAKVVEEVAPRMRPGSLLMDVTSLKAEPMKAMLRWAPDGVEVLGTHPMFGPTIPTIRGQTVILVPAAGRCDEWLLPMEEIFQEDGARVEVLGAEEHDRIMAVVQALTHFAYISIGSTLRSLDFDIAHSRRLMSPVYEIMIDFVGRILAQSPELYSSIQENPEAKRVREAYIEECQRLSKLADTGNSEGFMEAMRSAADHFDEREVALARSDRLISLWIDHREGKRRGLEPRW
modifications: M. harundinacea; misc_feature (1)..(310): M. harundinacea TyrA MhTyrA
notes: wild-type archaeon TyrA from Methanosaeta harundinacea, recombinant
ADH and PDH activity (in words) ([10]; 0.8 mM arogenate or prephenate, 0.8 mM cofactor): strong PDH and very weak ADH activity
cofactor preference (in words) ([10]; PDH activity, NADP+ versus NAD+, 0.8 mM): strongly preferred NADP+ over NAD+ cofactor
